Source: patent US20200199177

Assays:
AcDEVD-pNA = tested on: T1, AcDEVD-pNA
T1 sequence: DEVD

(AcDVED)K-pNA = tested on: T2, (AcDVED)K-pNA
T2 sequence: DVED

(AcDEVD)K-pNA = tested on: T3, (AcDEVD)K-pNA
T3 sequence: DEVD

(AcIEPD)K-pNA = tested on: T4, (AcIEPD)K-pNA
T4 sequence: IEPD

AcIEPD-pNA = tested on: T5, AcIEPD-pNA
T5 sequence: IEPD

CAAK(F)-diamino-pNA = tested on: T6, CAAK(F)-diamino-pNA
T6 sequence: CAAK

(AcAAF)K-pNA = tested on: T7, (AcAAF)K-pNA
T7 sequence: AAFK

(AcFG)K-pNA [1] = tested on: T8, (AcFG)K-pNA
T8 sequence: FGK

(AcFG)K-pNA [2] = biological target: T9, (AcFG)K-pNA (not fully specified)
T9 chain: FGK

Caspase 3
pNA release on caspase 3 digestion (AcDEVD-pNA): both substrates are digested efficiently by caspase 3 | pNA release with trypsin and caspase 3 ((AcDVED)K-pNA): no pNA release occurred when (AcDVED)K-pNA (SEQ ID NO: 2) was incubated with trypsin and caspase 3 | absorbance increase at 405 nm (pNA release), 125 uM substrate first with caspase-3 then with trypsin, over 60 minutes ((AcDEVD)K-pNA): 0.1±0.006 AU | pNA release relative to the commercial substrate AcDEVD-pNA ((AcDEVD)K-pNA): pNA release from our substrate corresponded to 83% of the release from the commercial substrate

Caspase 8
absorbance increase at 405 nm (pNA release) with caspase 8 and trypsin ((AcIEPD)K-pNA): little to no absorbance increase in the presence of caspase 8 and trypsin | caspase 8 activity on single enzyme substrate (absorbance, pNA release) (AcDEVD-pNA): cleaved as expected | caspase 8 activity on single enzyme substrate (absorbance, pNA release) (AcIEPD-pNA): cleaved as expected | absorbance increase at 405 nm, 500 uM substrate with caspase 8 for 24 hours before adding trypsin ((AcDEVD)K-pNA): did not result in a significant absorbance increase

Chymotrypsin
pNA release (absorbance at 405 nm), 2 mM peptide with trypsin and/or chymotrypsin, 90 minutes at 37 C (CAAK(F)-diamino-pNA): 55% of the theoretical pNA was released after 90 minutes of incubation | absorbance increase at 405 nm (pNA release), 50 uM substrate with chymotrypsin and trypsin, after five hours ((AcAAF)K-pNA): 0.039±0.003 AU | absorbance increase at 405 nm (pNA release), 100 uM substrate with chymotrypsin and trypsin ((AcAAF)K-pNA): 0.070±0.002 AU | absorbance increase at 405 nm (pNA release), 200 uM substrate with chymotrypsin and trypsin ((AcAAF)K-pNA): 0.147±0.002 AU

Trypsin
pNA release (absorbance at 405 nm) with trypsin only ((AcFG)K-pNA [1]): no absorbance increase was observed when the substrate was incubated with each enzyme separately | absorbance increase at 405 nm (pNA release), 100 uM peptide with trypsin only ((AcAAF)K-pNA): a minimal absorbance increase (0.016±0.002 AU) was observed when 100 µM peptide was incubated with trypsin only | absorbance increase at 405 nm (pNA release) with trypsin only ((AcDEVD)K-pNA): In the presence of trypsin or caspase 3 only, no absorbance increase was observed as expected

B1: Papain (protein)
chain: IPEYVDWRQKGAVTPVKNQGSCGSCWAFSAVVTIEGIIKIRTGNLNEYSEQELLDCDRRSYGCNGGYPWSALQLVAQYGIHYRNTYPYEGVQRYCRSREKGPYAAKTDGVRQVQPYNEGALLYSIANQPVSVVLEAAGKDFQLYRGGIFVGPCGNKVDHAVAAVGYGPNYILIKNSWGTGWGENGYIRIKRGTGNSYGVCGLYTSSFYPVKN
pNA release (absorbance at 405 nm) with papain and trypsin ((AcFG)K-pNA [2]): In the presence of papain and trypsin, pNA release from the substrate was observed to be substrate dependent
